According to patent US20100004431A1 (Xencor, published 2010):

B1: anti-CD25 H1.1L1 (antibody, V domains shown)
VH: QVQLVQSGAEVKKPGASVKVSCKASGYTFTSYRMHWVRQAPGQGLEWMGYINPSTGYTEYNQKFQGRVTITRDKSISTAYMELSRLRSDDTAVYYCARGGGVFDYWGQGTLVTVSS
VL: QIVLTQSPATLSLSPGERATLSCRASSSISYMHWFQQKPGQSPQLLIYTTSNLASGVPARFSGSGSGTDYTLTISSLQPEDFAVYYCHQRSTYPLTFGSGTKLEIK
notes: Single variant in the anti-CD25 H1L1 background; also called VH A71R single variant
B2: anti-CD25 H1.4L1 (antibody, V domains shown)
VH: QVQLVQSGAEVKKPGASVKVSCKASGYTFTSYRMHWVRQAPGQGLEWMGYINPSTGYTEYNQKFQGRVTITADTSISTAYMELSRLRSDDTAVYYCARGGGVFDYWGQGTLVTVSS
VL: QIVLTQSPATLSLSPGERATLSCRASSSISYMHWFQQKPGQSPQLLIYTTSNLASGVPARFSGSGSGTDYTLTISSLQPEDFAVYYCHQRSTYPLTFGSGTKLEIK
notes: Single variant in the anti-CD25 H1L1 background; also called VH K73T single variant
B3: anti-CD25 H1L1.5 (antibody, V domains shown)
VH: QVQLVQSGAEVKKPGASVKVSCKASGYTFTSYRMHWVRQAPGQGLEWMGYINPSTGYTEYNQKFQGRVTITADKSISTAYMELSRLRSDDTAVYYCARGGGVFDYWGQGTLVTVSS
VL: EIVLTQSPATLSLSPGERATLSCRASSSISYMHWFQQKPGQSPQLLIYTTSNLASGVPARFSGSGSGTDYTLTISSLQPEDFAVYYCHQRSTYPLTFGSGTKLEIK
notes: Single variant in the anti-CD25 H1L1 background; also called VL Q1E single variant
B4: anti-CD25 H1L1.6 (antibody, V domains shown)
VH: QVQLVQSGAEVKKPGASVKVSCKASGYTFTSYRMHWVRQAPGQGLEWMGYINPSTGYTEYNQKFQGRVTITADKSISTAYMELSRLRSDDTAVYYCARGGGVFDYWGQGTLVTVSS
VL: QIVLTQSPATLSLSPGERATLSCRASSSISYMHWFQQKPGQSPRLLIYTTSNLASGVPARFSGSGSGTDYTLTISSLQPEDFAVYYCHQRSTYPLTFGSGTKLEIK
notes: Single variant in the anti-CD25 H1L1 background; also called VL Q45R single variant
B5: anti-CD25 H1L1.7 (antibody, V domains shown)
VH: QVQLVQSGAEVKKPGASVKVSCKASGYTFTSYRMHWVRQAPGQGLEWMGYINPSTGYTEYNQKFQGRVTITADKSISTAYMELSRLRSDDTAVYYCARGGGVFDYWGQGTLVTVSS
VL: QIVLTQSPATLSLSPGERATLSCRASSSISYMHWFQQKPGQSPQLLIYTTSNLASGVPARFSGSGSGTDYTLTISSLEPEDFAVYYCHQRSTYPLTFGSGTKLEIK
notes: Single variant in the anti-CD25 H1L1 background; also called VL Q79E single variant
B6: anti-CD25 H1L1.20 (antibody, V domains shown)
VH: QVQLVQSGAEVKKPGASVKVSCKASGYTFTSYRMHWVRQAPGQGLEWMGYINPSTGYTEYNQKFQGRVTITADKSISTAYMELSRLRSDDTAVYYCARGGGVFDYWGQGTLVTVSS
VL: EIVLTQSPATLSLSPGERATLSCRASQSVSYLHWYQQKPGQAPRLLIYTTSNRATGIPARFSGSGSGTDFTLTISSLEPEDFAVYYCHQRSTYPLTFGSGTKLEIK
notes: also called VL combination variant L1.20 paired with H1
B7: anti-CD25 H1L1.43 (antibody, V domains shown)
VH: QVQLVQSGAEVKKPGASVKVSCKASGYTFTSYRMHWVRQAPGQGLEWMGYINPSTGYTEYNQKFQGRVTITADKSISTAYMELSRLRSDDTAVYYCARGGGVFDYWGQGTLVTVSS
VL: EIVLTQSPATLSLSPGERATLSCRASQSVSYLHWYQQKPGQAPRLLIYTTSNRATGIPARFSGSGSGTDYTLTISSLQPEDFAVYYCHQRSTYPLTFGSGTKLEIK
notes: also called VL combination variant L1.43 paired with H1
B8: anti-CD25 H1L1.48 (antibody, V domains shown)
VH: QVQLVQSGAEVKKPGASVKVSCKASGYTFTSYRMHWVRQAPGQGLEWMGYINPSTGYTEYNQKFQGRVTITADKSISTAYMELSRLRSDDTAVYYCARGGGVFDYWGQGTLVTVSS
VL: EIVLTQSPATLSLSPGERATLSCRASQSVSYMHWYQQKPGQAPRLLIYTTSNRATGIPARFSGSGSGTDFTLTISSLEPEDFAVYYCHQRSTYPLTFGSGTKLEIK
notes: also called VL combination variant L1.48 paired with H1
B9: anti-CD25 H1L1.56 (antibody, V domains shown)
VH: QVQLVQSGAEVKKPGASVKVSCKASGYTFTSYRMHWVRQAPGQGLEWMGYINPSTGYTEYNQKFQGRVTITADKSISTAYMELSRLRSDDTAVYYCARGGGVFDYWGQGTLVTVSS
VL: QIVLTQSPATLSLSPGERATLSCRASQSVSYLHWFQQKPGQSPQLLIYTTSNRATGIPARFSGSGSGTDFTLTISSLEPEDFAVYYCHQRSTYPLTFGSGTKLEIK
notes: the fourth VL chain; also called VL combination variant L1.56 paired with H1
B10: anti-CD25 H1.12L1.43 (antibody, V domains shown)
VH: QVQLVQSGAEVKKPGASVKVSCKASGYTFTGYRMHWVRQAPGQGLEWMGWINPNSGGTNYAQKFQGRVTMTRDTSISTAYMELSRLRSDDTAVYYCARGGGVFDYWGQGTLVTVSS
VL: EIVLTQSPATLSLSPGERATLSCRASQSVSYLHWYQQKPGQAPRLLIYTTSNRATGIPARFSGSGSGTDYTLTISSLQPEDFAVYYCHQRSTYPLTFGSGTKLEIK
B11: anti-CD25 H1.12L1.56 (antibody, V domains shown)
VH: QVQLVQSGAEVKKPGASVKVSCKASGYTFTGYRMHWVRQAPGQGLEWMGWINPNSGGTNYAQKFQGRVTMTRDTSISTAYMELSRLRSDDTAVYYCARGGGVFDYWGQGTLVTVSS
VL: QIVLTQSPATLSLSPGERATLSCRASQSVSYLHWFQQKPGQSPQLLIYTTSNRATGIPARFSGSGSGTDFTLTISSLEPEDFAVYYCHQRSTYPLTFGSGTKLEIK
B12: anti-CD25 H1.14L1.43 (antibody, V domains shown)
VH: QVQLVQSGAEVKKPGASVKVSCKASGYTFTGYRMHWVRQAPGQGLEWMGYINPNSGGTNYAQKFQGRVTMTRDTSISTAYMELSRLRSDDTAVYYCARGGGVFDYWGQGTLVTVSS
VL: EIVLTQSPATLSLSPGERATLSCRASQSVSYLHWYQQKPGQAPRLLIYTTSNRATGIPARFSGSGSGTDYTLTISSLQPEDFAVYYCHQRSTYPLTFGSGTKLEIK
B13: anti-CD25 H1.14L1.48 (antibody, V domains shown)
VH: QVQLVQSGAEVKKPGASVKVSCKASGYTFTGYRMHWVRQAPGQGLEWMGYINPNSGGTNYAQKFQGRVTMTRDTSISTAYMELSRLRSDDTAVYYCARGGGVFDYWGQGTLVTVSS
VL: EIVLTQSPATLSLSPGERATLSCRASQSVSYMHWYQQKPGQAPRLLIYTTSNRATGIPARFSGSGSGTDFTLTISSLEPEDFAVYYCHQRSTYPLTFGSGTKLEIK
B14: anti-CD25 H1.14L1.56 (antibody, V domains shown)
VH: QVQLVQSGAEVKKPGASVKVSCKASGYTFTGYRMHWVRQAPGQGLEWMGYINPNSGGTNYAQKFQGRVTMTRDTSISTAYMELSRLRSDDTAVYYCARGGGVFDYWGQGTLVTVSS
VL: QIVLTQSPATLSLSPGERATLSCRASQSVSYLHWFQQKPGQSPQLLIYTTSNRATGIPARFSGSGSGTDFTLTISSLEPEDFAVYYCHQRSTYPLTFGSGTKLEIK
B15: anti-CD25 H1.22L1.20 (antibody, V domains shown)
VH: QVQLVQSGAEVKKPGASVKVSCKASGYTFTSYRMHWVRQAPGQGLEWMGWINPNSGGTNYAQKFQGRVTITRDTSISTAYMELSRLRSDDTAVYYCARGGGVFDYWGQGTLVTVSS
VL: EIVLTQSPATLSLSPGERATLSCRASQSVSYLHWYQQKPGQAPRLLIYTTSNRATGIPARFSGSGSGTDFTLTISSLEPEDFAVYYCHQRSTYPLTFGSGTKLEIK
B16: anti-CD25 H1.22L1.43 (antibody, V domains shown)
VH: QVQLVQSGAEVKKPGASVKVSCKASGYTFTSYRMHWVRQAPGQGLEWMGWINPNSGGTNYAQKFQGRVTITRDTSISTAYMELSRLRSDDTAVYYCARGGGVFDYWGQGTLVTVSS
VL: EIVLTQSPATLSLSPGERATLSCRASQSVSYLHWYQQKPGQAPRLLIYTTSNRATGIPARFSGSGSGTDYTLTISSLQPEDFAVYYCHQRSTYPLTFGSGTKLEIK
B17: anti-CD25 H1.22L1.48 (antibody, V domains shown)
VH: QVQLVQSGAEVKKPGASVKVSCKASGYTFTSYRMHWVRQAPGQGLEWMGWINPNSGGTNYAQKFQGRVTITRDTSISTAYMELSRLRSDDTAVYYCARGGGVFDYWGQGTLVTVSS
VL: EIVLTQSPATLSLSPGERATLSCRASQSVSYMHWYQQKPGQAPRLLIYTTSNRATGIPARFSGSGSGTDFTLTISSLEPEDFAVYYCHQRSTYPLTFGSGTKLEIK
B18: anti-CD25 H1.22L1.56 (antibody, V domains shown)
VH: QVQLVQSGAEVKKPGASVKVSCKASGYTFTSYRMHWVRQAPGQGLEWMGWINPNSGGTNYAQKFQGRVTITRDTSISTAYMELSRLRSDDTAVYYCARGGGVFDYWGQGTLVTVSS
VL: QIVLTQSPATLSLSPGERATLSCRASQSVSYLHWFQQKPGQSPQLLIYTTSNRATGIPARFSGSGSGTDFTLTISSLEPEDFAVYYCHQRSTYPLTFGSGTKLEIK
B19: anti-CD25 H1.23L1.20 (antibody, V domains shown)
VH: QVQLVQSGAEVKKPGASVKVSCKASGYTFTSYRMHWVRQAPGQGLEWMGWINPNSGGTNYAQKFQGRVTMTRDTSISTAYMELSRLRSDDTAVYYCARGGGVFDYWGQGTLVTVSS
VL: EIVLTQSPATLSLSPGERATLSCRASQSVSYLHWYQQKPGQAPRLLIYTTSNRATGIPARFSGSGSGTDFTLTISSLEPEDFAVYYCHQRSTYPLTFGSGTKLEIK
B20: anti-CD25 H1.23L1.48 (antibody, V domains shown)
VH: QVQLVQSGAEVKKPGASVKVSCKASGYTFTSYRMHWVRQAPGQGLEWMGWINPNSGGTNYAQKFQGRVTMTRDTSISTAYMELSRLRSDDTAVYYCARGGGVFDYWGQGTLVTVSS
VL: EIVLTQSPATLSLSPGERATLSCRASQSVSYMHWYQQKPGQAPRLLIYTTSNRATGIPARFSGSGSGTDFTLTISSLEPEDFAVYYCHQRSTYPLTFGSGTKLEIK
B21: anti-CD25 H1.23L1.56 (antibody, V domains shown)
VH: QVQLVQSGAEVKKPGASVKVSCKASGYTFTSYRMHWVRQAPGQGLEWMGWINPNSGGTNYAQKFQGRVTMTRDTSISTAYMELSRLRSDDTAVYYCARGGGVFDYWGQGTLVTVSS
VL: QIVLTQSPATLSLSPGERATLSCRASQSVSYLHWFQQKPGQSPQLLIYTTSNRATGIPARFSGSGSGTDFTLTISSLEPEDFAVYYCHQRSTYPLTFGSGTKLEIK

Each binder was assayed against T1, CD25 (R&D systems cat. #223-2A/CF) (UniProt P01589 22-213, limits assumed) (assay: Biacore (SPR); antibody captured on Protein A, CD25 injected).
T1 construct: Bought soluble protein
T1 sequence (looked up): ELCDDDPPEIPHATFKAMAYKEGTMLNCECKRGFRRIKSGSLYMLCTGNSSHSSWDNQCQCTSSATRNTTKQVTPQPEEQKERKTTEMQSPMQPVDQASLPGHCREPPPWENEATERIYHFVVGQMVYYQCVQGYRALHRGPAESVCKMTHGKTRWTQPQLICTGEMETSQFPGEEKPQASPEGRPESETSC
Procedure: (§1) Binding was measured by injection of two-fold serial dilutions of CD25 (0 nM to 50 nM; R&D systems) in buffer at 25° C. with a flow rate of 25-30 μL/min for 2 min followed by a dissociation phase of 4-5 min. Association rates (kₒₙ) and dissociation rates (koff) were calculated using a simple one-to-one Langmuir binding model (BIAcore Evaluation Software version 3.2). The equilibrium dissociation constant (Kd) was calculated as the ratio of koff/kₒₙ).

Row | Binder | Fold change in Kd vs. H1L1 | Kd | koff | kon
1 | B1 | 2 fold | 0.16 nM | 0.00031 s⁻¹ | 1.9e+06 M⁻¹ s⁻¹
2 | B2 | 1.1 fold | 0.3 nM | 0.0006 s⁻¹ | 2e+06 M⁻¹ s⁻¹
3 | B3 | 1.1 fold | 0.29 nM | 0.00052 s⁻¹ | 1.8e+06 M⁻¹ s⁻¹
4 | B4 | 1 fold | 0.32 nM | 0.00057 s⁻¹ | 1.8e+06 M⁻¹ s⁻¹
5 | B5 | 1.2 fold | 0.28 nM | 0.00054 s⁻¹ | 2e+06 M⁻¹ s⁻¹

Target: T1, CD25 (R&D systems cat. #223-2A/CF)
Assay: as above
Remark: another data set of the same source
Procedure: as §1

Row | Binder | Fold change in Kd vs. H0L0 | Kd | koff | kon
6 | B6 | -4.2 fold | 1.1 nM | 0.00048 s⁻¹ | 430000 M⁻¹ s⁻¹
7 | B7 | -5 fold | 1.3 nM | 0.00053 s⁻¹ | 410000 M⁻¹ s⁻¹
8 | B8 | -2.4 fold | 0.63 nM | 0.00031 s⁻¹ | 500000 M⁻¹ s⁻¹
9 | B9 | -5 fold | 1.3 nM | 0.0007 s⁻¹ | 540000 M⁻¹ s⁻¹
10 | B10 | 1.4 fold | 0.19 nM | 0.00014 s⁻¹ | 720000 M⁻¹ s⁻¹
11 | B11 | 1.2 fold | 0.21 nM | 0.00018 s⁻¹ | 850000 M⁻¹ s⁻¹
12 | B12 | -1.3 fold | 0.32 nM | 0.00022 s⁻¹ | 670000 M⁻¹ s⁻¹
13 | B13 | 1.2 fold | 0.21 nM | 0.00017 s⁻¹ | 790000 M⁻¹ s⁻¹
14 | B14 | 1.6 fold | 0.16 nM | 0.00017 s⁻¹ | 1e+06 M⁻¹ s⁻¹
15 | B15 | 1.1 fold | 0.24 nM | 0.00018 s⁻¹ | 720000 M⁻¹ s⁻¹
16 | B16 | -1.1 fold | 0.3 nM | 0.00019 s⁻¹ | 640000 M⁻¹ s⁻¹
17 | B17 | 1.5 fold | 0.17 nM | 0.00014 s⁻¹ | 780000 M⁻¹ s⁻¹
18 | B18 | 1.2 fold | 0.22 nM | 0.00022 s⁻¹ | 970000 M⁻¹ s⁻¹
19 | B19 | 1.2 fold | 0.22 nM | 0.00016 s⁻¹ | 710000 M⁻¹ s⁻¹
20 | B20 | 1.1 fold | 0.23 nM | 0.00018 s⁻¹ | 750000 M⁻¹ s⁻¹
21 | B21 | 1.2 fold | 0.21 nM | 0.0002 s⁻¹ | 950000 M⁻¹ s⁻¹
